Experimental data published in paper PMC4669970 (Biochemical pharmacology, 2015).
Like-named read-outs stand apart in the source and are kept apart here. No end group written: not given here.

Experiments:
[1] = Tissue distribution of [^3H]-ghrelin after i.v. bolus in DFP-pretreated mice; conditions: as E30
[2] = rats; cited from earlier work
[3] = humans; cited from earlier work
human BChE = human BChE (Homo sapiens, UniProt P06276); assay: Inhibition of BChE-catalysed ghrelin hydrolysis by BChE-specific inhibitors; assay type: biochemical; conditions: parallel assays, modest concentrations of inhibitor
Sequence of human BChE (P06276 29-602): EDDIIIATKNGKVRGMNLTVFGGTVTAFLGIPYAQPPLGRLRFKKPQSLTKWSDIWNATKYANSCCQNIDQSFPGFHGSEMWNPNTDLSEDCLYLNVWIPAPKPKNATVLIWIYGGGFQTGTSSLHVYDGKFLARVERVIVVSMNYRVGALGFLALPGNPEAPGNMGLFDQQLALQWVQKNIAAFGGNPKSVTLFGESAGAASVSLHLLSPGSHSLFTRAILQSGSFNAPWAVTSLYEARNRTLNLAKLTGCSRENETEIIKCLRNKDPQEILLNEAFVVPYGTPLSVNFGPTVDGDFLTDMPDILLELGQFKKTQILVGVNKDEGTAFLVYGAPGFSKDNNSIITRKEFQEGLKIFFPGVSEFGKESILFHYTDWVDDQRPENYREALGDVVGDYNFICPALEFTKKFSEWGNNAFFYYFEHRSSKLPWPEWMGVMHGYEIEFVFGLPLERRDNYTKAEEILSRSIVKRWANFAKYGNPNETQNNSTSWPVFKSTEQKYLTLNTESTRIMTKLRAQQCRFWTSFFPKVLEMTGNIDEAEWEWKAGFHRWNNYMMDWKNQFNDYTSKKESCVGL

Molecule | time of peak concentration in liver [1] [min] | time of peak concentration in pancreas [1] [min] | time of peak concentration in spleen [1] [min] | circulating half-life [2] [min] | circulating half-life [3] [min] | effect on BChE ghrelin hydrolysis reactions (human BChE)
ghrelin (GSS((3H)n‑octanoyl)FLSPEHQRVQQRKESKKPPAKLQPR; also: tritium label on the octanoyl group (tracer form); UniProt Q9UBU3 24-51, looked up) | 6 | 12 | 12 | 8 | 8 to 13 | –
CCN(CC)C(C)CN1c2ccccc2Sc2ccccc21 (stereo not drawn) [ethopropazine] | – | – | – | – | – | stopped those reactions completely
